Columns and labels:
[1] = molecular target: T1, human HER3 (human, UniProt P21860 20-643); assay: BLI (Octet), binder on AHC sensor, 200 nM human HER3, 1:1 fit
T1 construct: Soluble antigen in Octet; bought; also called human HER3 (Acro ER3-H5223)

[2] = molecular target: T2, human EGFR (human, UniProt P00533 25-645, limits assumed); assay: BLI (Octet), binder on AHC sensor, 200 nM human EGFR, 1:1 fit
T2 construct: Soluble antigen in Octet; construct not described

[3] = molecular target: T3, human CD3 (human, UniProt P07766 23-126; P04234 22-105); assay: BLI (Octet), binder on AHC sensor, 100 nM human CD3, 1:1 fit
T3 construct: also called His-tagged human CD3; human CD3 (Acro CDD-H52W1)

Binder	Kd [1]	Kd [2]	Kd [3]
SI-75X19 (other, tri-miniGNC; D3 αCD3* (Fab), D4 αEGFR VHH, D5 αHER3 VHH) chain 1: QVQLQESGGRLVQPGEPLSLTCKTSGIDLSSNAIGWVRQAPGKGLEWIGVIFGSGNTYYASWAKGRFTISRSTSTVYLKMNSLRSEDTAIYYCARGGYSSDIWGQGTLVTVSSASTKGPSVFPLAPSSKSTSGGTAALGCLVKDYFPEPVTVSWNSGALTSGVHTFPAVLQSSGLYSLSSVVTVPSSSLGTQTYICNVNHKPSNTKVDKRVEPKSCDKTHTCPPCPAPEAAGGPSVFLFPPKPKDTLMISRTPEVTCVVVDVSHEDPEVKFNWYVDGVEVHNAKTKPREEQYNSTYRVVSVLTVLHQDWLNGKEYKCAVSNKALPAPIEKTISKAKGQPREPQVYTLPPSRDELTKNQVSLSCAVKGFYPSDIAVEWESNGQPENNYKTTPPVLDSDGSFFLVSKLTVDKSRWQQGNVFSCSVMHEALHNHYTQKSLSLSPGGGGGSGGGGSEVQLQESGGGLVQAGDSLSLSCLVSGRSFNSYTMGWFRQAPGKEREFVAAILWSGPTTYYADSVKGRFTISRDNAKNTVYLQMNSLKPEDTAVYYCAAALGVLVLAPGNVYSYWGQGTQVTVSS chain 2: DPQLTQSPSSLSATVGQRVTINCQSSQSVAKNNNLAWFQQKPGKPPKLLIYSASTLAAGVPSRFSGSGSGTQFTLTITRVQSEDFATYYCSARDSGNIQSFGGGTRVEIKRTVAAPSVFIFPPSDEQLKSGTASVVCLLNNFYPREAKVQWKVDNALQSGNSQESVTEQDSKDSTYSLSSTLTLSKADYEKHKVYACEVTHQGLSSPVTKSFNRGECGGDKTHTCPPCPAPEAAGGPSVFLFPPKPKDTLMISRTPEVTCVVVDVSHEDPEVKFNWYVDGVEVHNAKTKPREEQYNSTYRVVSVLTVLHQDWLNGKEYKCAVSNKALPAPIEKTISKAKGQPREPQVYTLPPSRDELTKNQVSLWCLVKGFYPSDIAVEWESNGQPENNYKTTPPVLDSDGSFFLYSKLTVDKSRWQQGNVFSCSVMHEALHNRFTQKSLSLSPGGGGGSGGGGSQVQLVQSGGGLVQAGGSLSLSCAFSGRTFSMYTMGWFRQAPGKEREFVAANRGRGLSPDIADSVNGRFTISRDNAKNTLYLQMDSLKPEDTAVYYCAADLQYGSSWPQRSSAEYDYWGQGTTVTVSS	10.5 nM	20.6 nM	64.4 nM
SI-75X15 (bispecific antibody, human IgG1, kappa, L234A L235A, bi-miniGNC; D3 αCD3* (Fab), D5 αHER3 VHH) chain 1: QVQLQESGGRLVQPGEPLSLTCKTSGIDLSSNAIGWVRQAPGKGLEWIGVIFGSGNTYYASWAKGRFTISRSTSTVYLKMNSLRSEDTAIYYCARGGYSSDIWGQGTLVTVSSASTKGPSVFPLAPSSKSTSGGTAALGCLVKDYFPEPVTVSWNSGALTSGVHTFPAVLQSSGLYSLSSVVTVPSSSLGTQTYICNVNHKPSNTKVDKRVEPKSCDKTHTCPPCPAPEAAGGPSVFLFPPKPKDTLMISRTPEVTCVVVDVSHEDPEVKFNWYVDGVEVHNAKTKPREEQYNSTYRVVSVLTVLHQDWLNGKEYKCAVSNKALPAPIEKTISKAKGQPREPQVYTLPPSRDELTKNQVSLSCAVKGFYPSDIAVEWESNGQPENNYKTTPPVLDSDGSFFLVSKLTVDKSRWQQGNVFSCSVMHEALHNHYTQKSLSLSPG chain 2: DPQLTQSPSSLSATVGQRVTINCQSSQSVAKNNNLAWFQQKPGKPPKLLIYSASTLAAGVPSRFSGSGSGTQFTLTITRVQSEDFATYYCSARDSGNIQSFGGGTRVEIKRTVAAPSVFIFPPSDEQLKSGTASVVCLLNNFYPREAKVQWKVDNALQSGNSQESVTEQDSKDSTYSLSSTLTLSKADYEKHKVYACEVTHQGLSSPVTKSFNRGECGGDKTHTCPPCPAPEAAGGPSVFLFPPKPKDTLMISRTPEVTCVVVDVSHEDPEVKFNWYVDGVEVHNAKTKPREEQYNSTYRVVSVLTVLHQDWLNGKEYKCAVSNKALPAPIEKTISKAKGQPREPQVYTLPPSRDELTKNQVSLWCLVKGFYPSDIAVEWESNGQPENNYKTTPPVLDSDGSFFLYSKLTVDKSRWQQGNVFSCSVMHEALHNRFTQKSLSLSPGGGGGSGGGGSQVQLVQSGGGLVQAGGSLSLSCAFSGRTFSMYTMGWFRQAPGKEREFVAANRGRGLSPDIADSVNGRFTISRDNAKNTLYLQMDSLKPEDTAVYYCAADLQYGSSWPQRSSAEYDYWGQGTTVTVSS	13.7 nM		38.1 nM
SI-75X4 (other, tri-miniGNC; D1 αEGFR VHH, D2 αHER3 VHH, D3 αCD3 (Fab)) chain 1: EVQLQESGGGLVQAGDSLSLSCLVSGRSFNSYTMGWFRQAPGKEREFVAAILWSGPTTYYADSVKGRFTISRDNAKNTVYLQMNSLKPEDTAVYYCAAALGVLVLAPGNVYSYWGQGTQVTVSSGGGGSGGGGSEVQLVESGGGLVQPGGSLRLSCAASGFTISTNAMSWVRQAPGKGLEWIGVITGRDITYYASWAKGRFTISRDNSKNTLYLQMSSLRSEDTAVYYCARDGGSSAITSNNIWGQGTLVTVSSASTKGPSVFPLAPSSKSTSGGTAALGCLVKDYFPEPVTVSWNSGALTSGVHTFPAVLQSSGLYSLSSVVTVPSSSLGTQTYICNVNHKPSNTKVDKRVEPKSCDKTHTCPPCPAPEAAGGPSVFLFPPKPKDTLMISRTPEVTCVVVDVSHEDPEVKFNWYVDGVEVHNAKTKPREEQYNSTYRVVSVLTVLHQDWLNGKEYKCAVSNKALPAPIEKTISKAKGQPREPQVYTLPPSRDELTKNQVSLSCAVKGFYPSDIAVEWESNGQPENNYKTTPPVLDSDGSFFLVSKLTVDKSRWQQGNVFSCSVMHEALHNHYTQKSLSLSPG chain 2: QVQLVQSGGGLVQAGGSLSLSCAFSGRTFSMYTMGWFRQAPGKEREFVAANRGRGLSPDIADSVNGRFTISRDNAKNTLYLQMDSLKPEDTAVYYCAADLQYGSSWPQRSSAEYDYWGQGTTVTVSSGGGGSGGGGSDVVMTQSPSTLSASVGDRVTINCQASESISSWLAWYQQKPGKAPKLLIYEASKLASGVPSRFSGSGSGTEFTLTISSLQPDDFATYYCQGYFYFISRTYVNSFGGGTKVEIKRTVAAPSVFIFPPSDEQLKSGTASVVCLLNNFYPREAKVQWKVDNALQSGNSQESVTEQDSKDSTYSLSSTLTLSKADYEKHKVYACEVTHQGLSSPVTKSFNRGECGGDKTHTCPPCPAPEAAGGPSVFLFPPKPKDTLMISRTPEVTCVVVDVSHEDPEVKFNWYVDGVEVHNAKTKPREEQYNSTYRVVSVLTVLHQDWLNGKEYKCAVSNKALPAPIEKTISKAKGQPREPQVYTLPPSRDELTKNQVSLWCLVKGFYPSDIAVEWESNGQPENNYKTTPPVLDSDGSFFLYSKLTVDKSRWQQGNVFSCSVMHEALHNRFTQKSLSLSPG	7.68 nM	51.5 nM	26.3 nM

Binders with a lower Kd [1], results first:

Kd [1]	Kd [2]	Kd [3]	Binder
4.58 nM	14.8 nM	68 nM	SI-75X17 (other, tri-miniGNC; D1 αEGFR VHH, D2 αHER3 VHH, D3 αCD3* (Fab)) chain 1: EVQLQESGGGLVQAGDSLSLSCLVSGRSFNSYTMGWFRQAPGKEREFVAAILWSGPTTYYADSVKGRFTISRDNAKNTVYLQMNSLKPEDTAVYYCAAALGVLVLAPGNVYSYWGQGTQVTVSSGGGGSGGGGSQVQLQESGGRLVQPGEPLSLTCKTSGIDLSSNAIGWVRQAPGKGLEWIGVIFGSGNTYYASWAKGRFTISRSTSTVYLKMNSLRSEDTAIYYCARGGYSSDIWGQGTLVTVSSASTKGPSVFPLAPSSKSTSGGTAALGCLVKDYFPEPVTVSWNSGALTSGVHTFPAVLQSSGLYSLSSVVTVPSSSLGTQTYICNVNHKPSNTKVDKRVEPKSCDKTHTCPPCPAPEAAGGPSVFLFPPKPKDTLMISRTPEVTCVVVDVSHEDPEVKFNWYVDGVEVHNAKTKPREEQYNSTYRVVSVLTVLHQDWLNGKEYKCAVSNKALPAPIEKTISKAKGQPREPQVYTLPPSRDELTKNQVSLSCAVKGFYPSDIAVEWESNGQPENNYKTTPPVLDSDGSFFLVSKLTVDKSRWQQGNVFSCSVMHEALHNHYTQKSLSLSPG chain 2: QVQLVQSGGGLVQAGGSLSLSCAFSGRTFSMYTMGWFRQAPGKEREFVAANRGRGLSPDIADSVNGRFTISRDNAKNTLYLQMDSLKPEDTAVYYCAADLQYGSSWPQRSSAEYDYWGQGTTVTVSSGGGGSGGGGSDPQLTQSPSSLSATVGQRVTINCQSSQSVAKNNNLAWFQQKPGKPPKLLIYSASTLAAGVPSRFSGSGSGTQFTLTITRVQSEDFATYYCSARDSGNIQSFGGGTRVEIKRTVAAPSVFIFPPSDEQLKSGTASVVCLLNNFYPREAKVQWKVDNALQSGNSQESVTEQDSKDSTYSLSSTLTLSKADYEKHKVYACEVTHQGLSSPVTKSFNRGECGGDKTHTCPPCPAPEAAGGPSVFLFPPKPKDTLMISRTPEVTCVVVDVSHEDPEVKFNWYVDGVEVHNAKTKPREEQYNSTYRVVSVLTVLHQDWLNGKEYKCAVSNKALPAPIEKTISKAKGQPREPQVYTLPPSRDELTKNQVSLWCLVKGFYPSDIAVEWESNGQPENNYKTTPPVLDSDGSFFLYSKLTVDKSRWQQGNVFSCSVMHEALHNRFTQKSLSLSPG
3.86 nM		84.2 nM	SI-75X9 (bispecific antibody, human IgG1, kappa, L234A L235A, bi-miniGNC; D2 αHER3 VHH, D3 αCD3* (Fab)) chain 1: QVQLQESGGRLVQPGEPLSLTCKTSGIDLSSNAIGWVRQAPGKGLEWIGVIFGSGNTYYASWAKGRFTISRSTSTVYLKMNSLRSEDTAIYYCARGGYSSDIWGQGTLVTVSSASTKGPSVFPLAPSSKSTSGGTAALGCLVKDYFPEPVTVSWNSGALTSGVHTFPAVLQSSGLYSLSSVVTVPSSSLGTQTYICNVNHKPSNTKVDKRVEPKSCDKTHTCPPCPAPEAAGGPSVFLFPPKPKDTLMISRTPEVTCVVVDVSHEDPEVKFNWYVDGVEVHNAKTKPREEQYNSTYRVVSVLTVLHQDWLNGKEYKCAVSNKALPAPIEKTISKAKGQPREPQVYTLPPSRDELTKNQVSLSCAVKGFYPSDIAVEWESNGQPENNYKTTPPVLDSDGSFFLVSKLTVDKSRWQQGNVFSCSVMHEALHNHYTQKSLSLSPG chain 2: QVQLVQSGGGLVQAGGSLSLSCAFSGRTFSMYTMGWFRQAPGKEREFVAANRGRGLSPDIADSVNGRFTISRDNAKNTLYLQMDSLKPEDTAVYYCAADLQYGSSWPQRSSAEYDYWGQGTTVTVSSGGGGSGGGGSDPQLTQSPSSLSATVGQRVTINCQSSQSVAKNNNLAWFQQKPGKPPKLLIYSASTLAAGVPSRFSGSGSGTQFTLTITRVQSEDFATYYCSARDSGNIQSFGGGTRVEIKRTVAAPSVFIFPPSDEQLKSGTASVVCLLNNFYPREAKVQWKVDNALQSGNSQESVTEQDSKDSTYSLSSTLTLSKADYEKHKVYACEVTHQGLSSPVTKSFNRGECGGDKTHTCPPCPAPEAAGGPSVFLFPPKPKDTLMISRTPEVTCVVVDVSHEDPEVKFNWYVDGVEVHNAKTKPREEQYNSTYRVVSVLTVLHQDWLNGKEYKCAVSNKALPAPIEKTISKAKGQPREPQVYTLPPSRDELTKNQVSLWCLVKGFYPSDIAVEWESNGQPENNYKTTPPVLDSDGSFFLYSKLTVDKSRWQQGNVFSCSVMHEALHNRFTQKSLSLSPG

Source: patent US20230114801A1 (SYSTIMMUNE, published 2023)
